Laboratory results taken from US20200299389A1.

Columns and labels:
VEGF165 [1] = biological target: VEGF165 (UniProt P15692); test: cell-based or functional assay
VEGF165 [2] = biological target: VEGF165 (UniProt P15692); test: ELISA; details: Fc fusion

Chain of VEGF165 (P15692 other isoform, or with tags, fused parts or gaps): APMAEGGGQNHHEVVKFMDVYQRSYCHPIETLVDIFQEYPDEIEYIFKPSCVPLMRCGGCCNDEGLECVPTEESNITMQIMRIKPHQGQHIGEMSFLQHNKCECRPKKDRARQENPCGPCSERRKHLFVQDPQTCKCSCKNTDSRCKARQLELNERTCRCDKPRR

## VEGFR-Fc (aflibercept) (from UniProt P17948 129-230; P35968 225-327) (Fc fusion)
VEGF165 [1]
  inhibition of VEGF165-stimulated HUVEC proliferation (IC50): 0.107 nM

## VEGFR-Fc (aflibercept) (from UniProt P17948 129-230; P35968 225-327)
VEGF165 [2]
  EC50: 0.057 nM
